The text below walks through data of PMC4772114, “Structural basis for the regulation of enzymatic activity of Regnase-1 by domain-domain interactions” (Scientific Reports, 2016).

Series [1] deals with the molecule itself. Briefly: not stated; Kd of PIN-PIN told in the discussion only; how it was estimated is not told.
Series [2] deals with the molecule itself. Briefly: SEC; gel filtration of the PIN domain and its mutants; elution volume compared with standard marker proteins; concentration dependent, 20-200 uM range.
Series [3] deals with the molecule itself. Briefly: crystal structure; PIN-ZF (134-339), sitting drop vapor diffusion at 20 C; form I (P3_121, selenomethionine-labeled) and form II (P3_221, native).
A further series concerns the target T1, Regnase-1 ZF domain (Mus musculus, UniProt Q5D1E7 299-339).
T1 chain: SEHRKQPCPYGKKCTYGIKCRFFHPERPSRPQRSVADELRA
Briefly: NMR titration (1H-15N HSQC, Y314); Zn2+-bound ZF; 100 uM ZF; apparent Kd; EMSA: 20 mM HEPES-NaOH pH 6.8, 150 mM NaCl, 1 mM DTT, 10% glycerol, 0.1% NP-40, 4 C, 30 min; NMR buffer not in material. To be noted: protein: recombinant; tags: GST removed (HRV-3C), 15N-labeled.

In series [4] the target is T2, Regnase-1 PIN domain, catalytically inactive monomeric mutant (DDNN and D278R) (Mus musculus, UniProt Q5D1E7 134-295, D226N | D244N | D278R).
T2 construct: Regnase-1 (Zc3h12a), Mus musculus, PIN domain; the discussion gives PIN as residues 134-295; Limits as for m1; Uniformly 15N-labelled or unlabelled in the NMR experiments; not shown: GST, N-terminal, cleaved
T2 sequence (looked up): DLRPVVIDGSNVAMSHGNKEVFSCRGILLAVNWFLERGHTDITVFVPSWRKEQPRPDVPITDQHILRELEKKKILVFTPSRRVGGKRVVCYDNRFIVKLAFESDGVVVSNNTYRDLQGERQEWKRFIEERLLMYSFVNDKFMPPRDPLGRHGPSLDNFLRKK
Put plainly: NMR titration; 1H-15N HSQC of 15N-labeled NTD at 100 uM with unlabeled PIN (DDNN, D278R) added (3 or 6 molar equivalents); 298 K; apparent Kd from the titration curve of L58. To be noted: both partners purified.

B1: Regnase-1 PIN domain, wild type (domain or fragment, Mus musculus, UniProt Q5D1E7 134-295, looked up)
chain: DLRPVVIDGSNVAMSHGNKEVFSCRGILLAVNWFLERGHTDITVFVPSWRKEQPRPDVPITDQHILRELEKKKILVFTPSRRVGGKRVVCYDDRFIVKLAFESDGVVVSNDTYRDLQGERQEWKRFIEERLLMYSFVNDKFMPPDDPLGRHGPSLDNFLRKK
notes: Regnase-1 (Zc3h12a, MCPIP1), Mus musculus, PIN domain; the discussion gives PIN as residues 134-295; The limits 134-295 are told for the PIN domain in the discussion, not expressly for the construct; 15N-labelled for NMR; also called PilT N-terminus like domain; not shown: GST, N-terminal, cleaved
Take B1: in series [1], the Kd was approximately 100 µM.

B2: Regnase-1 PIN domain R215E (domain or fragment, Mus musculus, UniProt Q5D1E7 134-295, looked up)
chain: DLRPVVIDGSNVAMSHGNKEVFSCRGILLAVNWFLERGHTDITVFVPSWRKEQPRPDVPITDQHILRELEKKKILVFTPSREVGGKRVVCYDDRFIVKLAFESDGVVVSNDTYRDLQGERQEWKRFIEERLLMYSFVNDKFMPPDDPLGRHGPSLDNFLRKK
notes: Regnase-1 (Zc3h12a), Mus musculus, PIN domain; the discussion gives PIN as residues 134-295; Limits as for m1; not shown: GST, N-terminal, cleaved
As to B2, the binding result in series [2] is reported as “binds”.

B3: Regnase-1 PIN-ZF (residues 134-339) (domain or fragment, Mus musculus, UniProt Q5D1E7 134-339, looked up)
chain: DLRPVVIDGSNVAMSHGNKEVFSCRGILLAVNWFLERGHTDITVFVPSWRKEQPRPDVPITDQHILRELEKKKILVFTPSRRVGGKRVVCYDDRFIVKLAFESDGVVVSNDTYRDLQGERQEWKRFIEERLLMYSFVNDKFMPPDDPLGRHGPSLDNFLRKKPLPSEHRKQPCPYGKKCTYGIKCRFFHPERPSRPQRSVADELRA
modifications: selenomethionine-labeled (form I crystals); native (form II crystals)
notes: Regnase-1 (Zc3h12a), Mus musculus, PIN and ZF domains, residues 134-339; Electron density was observed only for the PIN domain; also called fragment containing both the PIN and ZF domains; not shown: GST, N-terminal, cleaved
B3: the binding result in series [3] is “binds”. As for UGUUGUUCUCUACGAAGAACUGACA (ssRNA) [IL-6 mRNA 3'UTR (82-106)], the Kd with Regnase-1 ZF domain was determined as 10 ± 1.1 µM.

B4: Regnase-1 N-terminal domain (NTD) (domain or fragment, Mus musculus)
chain: TSELQMKVDFFRKLGYSSSEIHSVLQKLGVQADTNTVLGELVKHG
notes: Regnase-1 (Zc3h12a), Mus musculus, N-terminal domain; residues 90-133 are called the connection between the NTD and PIN; Uniformly 15N-labelled or unlabelled in the NMR experiments; not shown: GST, N-terminal, cleaved
Turning to B4, the Kd in series [4] was 110 ± 5.8 µM.
